The nature of series [1]: protein stability in MDA-MB-231 and BT-549 (Fig. S2C). The following applies: glycan lost; control: SGK196-WT.
Series [2] can be described thus: anti-HA immunofluorescence, MDA-MB-231 and BT-549. As to conditions: glycan lost; control: SGK196-WT.
Series [3] is described as follows: Transwell migration, MDA-MB-231 and BT-549 rescue lines. As to conditions: glycan lost; control: SGK196-WT re-expressed in shSGK196 cells.
Series [4] in a line: Matrigel Transwell invasion, MDA-MB-231 and BT-549 rescue lines. The following applies: glycan lost; control: SGK196-WT re-expressed in shSGK196 cells.

B1: SGK196: SGK196-4NQ (protein)
parent chain: MEKQPQNSRRGLAPREVPPAVGLLLIMALMNTLLYLCLDHFFIAPRQSTVDPTHCPYGHFRIGQMKNCSPWLSCEELRTEVRQLKRVGEGAVKRVFLSEWKEHKVALSQLTSLEMKDDFLHGLQMLKSLQGTHVVTLLGYCEDDNTMLTEYHPLGSLSNLEETLNLSKYQNVNTWQHRLELAMDYVSIINYLHHSPVGTRVMCDSNDLPKTLSQYLLTSNFSILANDLDALPLVNHSSGMLVKCGHRELHGDFVAPEQLWPYGEDVPFHDDLMPSYDEKIDIWKIPDISSFLLGHIEGSDMVRFHLFDIHKACKSQTPSERPTAQDVLETYQKVLDTLRDAMMSQAREML
For B1, the degradation_or_half_life entry in series [1] is listed as “no change”. Further, the localisation_or_trafficking result in series [2] was “no change”. For the same protein, the “other: suppression of cell migration” value in series [3] is recorded as “decreases”. In addition, in series [4], the “other: suppression of cell invasion” value is “decreases”.

(Values after article PMC6949223.)
